Measured values published in patent publication US12497460B2, “Anti-MSR1 antibodies and methods of use thereof” (REGENERON PHARMACEUTICALS, INC., priority 2018, dated 2025).
Numbering of substitutions follows the chain as printed. Names may count otherwise.

T1: His9-hMSR1 (human MSR1 extracellular domain) (Homo sapiens, UniProt P21757)
T1 construct: human MSR1 extracellular domain expressed with a N-terminal nonahistidine tag; His9 (nonahistidine) (N); purchased R&D Systems 2708-MS
T1 sequence (P21757 77-451 limits assumed): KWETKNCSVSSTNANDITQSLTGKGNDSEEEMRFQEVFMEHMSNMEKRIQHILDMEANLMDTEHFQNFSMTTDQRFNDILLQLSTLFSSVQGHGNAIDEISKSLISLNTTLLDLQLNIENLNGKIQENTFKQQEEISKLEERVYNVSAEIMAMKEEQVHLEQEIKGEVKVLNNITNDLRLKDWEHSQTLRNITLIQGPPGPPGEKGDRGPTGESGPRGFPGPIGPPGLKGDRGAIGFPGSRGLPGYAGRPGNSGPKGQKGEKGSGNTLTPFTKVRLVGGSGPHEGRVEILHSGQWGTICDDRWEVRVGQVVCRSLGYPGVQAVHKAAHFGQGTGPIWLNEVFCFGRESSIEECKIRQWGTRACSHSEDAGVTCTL

T2: MSR1-mediated Dil-AcLDL uptake in HEK293.Myc.hMSR1 cells (Homo sapiens, UniProt P21757)
T2 construct: expressed in transfected cells; host or cells: HEK293 (lentiviral transduction, hygromycin selection)
T2 sequence (P21757 1-451): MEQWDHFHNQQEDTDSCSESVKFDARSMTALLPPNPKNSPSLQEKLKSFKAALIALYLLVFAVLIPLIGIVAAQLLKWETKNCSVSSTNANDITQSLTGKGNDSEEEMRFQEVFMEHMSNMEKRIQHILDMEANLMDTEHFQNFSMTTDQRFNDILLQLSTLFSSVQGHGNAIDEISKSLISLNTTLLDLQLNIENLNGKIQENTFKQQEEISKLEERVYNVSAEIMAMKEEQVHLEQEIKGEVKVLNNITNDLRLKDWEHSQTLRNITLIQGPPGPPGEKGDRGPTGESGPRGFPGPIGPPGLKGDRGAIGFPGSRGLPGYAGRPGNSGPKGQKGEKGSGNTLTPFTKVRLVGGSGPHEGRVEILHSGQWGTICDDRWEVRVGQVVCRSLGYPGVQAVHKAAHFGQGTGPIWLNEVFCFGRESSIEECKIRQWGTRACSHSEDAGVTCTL

B1: H1H21227N-N297Q: "modified versions of 21227N (H1H21227N-N297Q and H1H21227N-N297D)"; anti-MSR1 antibody "with a N297Q single point mutation" (antibody, V domains shown)
VH: QVQLVQSGAEVKKPGASVKVSCKVSGYTLTELSIHWVRQVPGKGLEWMGGFDPEEGETIFAQEFRDRVTLTEDTSPDTAYMELSSLKSEDAAVYYCTTPRYCNNGICYDYWGQGTLVTVSS
VL: DIQMTQSPSSLSASVGDRVTITCRASQSISNYLNWYQQKPGKAPKLLIYTASSLQSGVPSRFSGSGSGTDFTLTISSLQTEDFATYYCQQSYSNFPITFGQGTRLEIKR
B2: H1H21231N-N297Q: modified version of "21231N (H1H21231N-N297Q) anti-MSR1 antibodies" with "a N297Q single point mutation" (antibody, V domains shown)
VH: EVQLVESGGGLVQPGGSLRLSCAASGFTFSDHYMDWVRQAPGKGLEWVGRTRNKANSHTTEYTASVTGRFTISRDDSRNSLYLQMNSLKTEDTAVYYCVRAGIIGTLFDYWGQGTLVTVSS
VL: B1 VL with S7F, N31S, Y32F, Y36F, L46F, T50A, T80P, N94S, F95P
B3: H1H21227N: "anti-MSR1 antibodies ... (21227N, 21231N, 21234N) were produced with the original human Fcγ portion"; "H1H" = human IgG1 Fc (antibody, V domains shown)
VH: B1 VH
VL: B1 VL
modifications: human IgG1 Fc
notes: "anti-MSR1 antibodies ; (21227N, 21231N, 21234N) were produced with the original human Fcγ portion"; "H1H" = human IgG1 Fc
B4: H1H21231N: "anti-MSR1 antibodies ... (21227N, 21231N, 21234N) were produced with the original human Fcγ portion"; "H1H" = human IgG1 Fc (antibody, V domains shown)
VH: B2 VH
VL: B1 VL with S7F, N31S, Y32F, Y36F, L46F, T50A, T80P, N94S, F95P
modifications: human IgG1 Fc
notes: as for B3

Molecular target: HMM-mfMSR1 (monkey MSR1 extracellular domain)
Assay: Biacore surface plasmon resonance binding kinetics of anti-MSR1 mAbs, antibody-capture format
Conditions: 25° C.; analyte HMM-mfMSR1; * = no dissociation observed, kd manually fixed at 1.00E−05; NB = no binding observed
Experimental: (§1) Binding affinities and kinetic constants of human anti-MSR1 antibodies for different MSR1 reagents were determined by real-time surface plasmon resonance (Biacore 4000). All binding studies were performed in 10 mM HEPES, 150 mM NaCl, 3 mM EDTA, and 0.05% v/v Surfactant Tween-20, pH 7.4 (HBS-ET) running buffer at 25° C. and 37° C.
(§2) The association rate (ka) and dissociation rate (kd) were determined by fitting the real-time binding sensorgrams to a 1:1 binding model with mass transport limitation using Scrubber 2.0c curve-fitting software. Binding dissociation equilibrium constant (KD) and dissociative half-life (t½) were calculated from the kinetic rates as: […]

Chain of HMM-mfMSR1 (monkey MSR1 extracellular domain) (as listed by the source): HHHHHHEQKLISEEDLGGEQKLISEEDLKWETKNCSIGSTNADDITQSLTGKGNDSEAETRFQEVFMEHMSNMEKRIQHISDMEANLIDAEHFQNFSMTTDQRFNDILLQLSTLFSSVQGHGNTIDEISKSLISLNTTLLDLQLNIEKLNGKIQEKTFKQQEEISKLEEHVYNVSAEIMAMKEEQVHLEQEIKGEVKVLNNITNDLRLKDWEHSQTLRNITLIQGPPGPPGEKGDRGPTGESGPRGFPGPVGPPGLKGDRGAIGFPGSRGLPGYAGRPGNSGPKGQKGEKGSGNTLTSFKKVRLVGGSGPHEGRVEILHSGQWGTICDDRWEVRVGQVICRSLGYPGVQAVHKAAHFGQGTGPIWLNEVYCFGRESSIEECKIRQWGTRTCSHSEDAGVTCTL

Row | Molecule | kd [s⁻¹]
1 | B1 | 7.51e-05
2 | B2 | 9.03e-05
3 | B3 | 4.41e-05
4 | B4 | 6.39e-05

Same assay, conditions: 25° C.; analyte HMM-mfMSR1; antibody-capture format; NB = no binding observed

Row | Molecule | ka [M⁻¹ s⁻¹]
5 | B1 | 1.36e+06
6 | B2 | 240000
7 | B3 | 1.27e+06
8 | B4 | 274000

Same assay, conditions: 25° C.; analyte HMM-mfMSR1; calculated from kinetic rates; NB = no binding observed

Row | Molecule | Kd [nM]
9 | B1 | 0.0553
10 | B2 | 0.376
11 | B3 | 0.0348
12 | B4 | 0.233

Same assay, conditions: 25° C.; analyte HMM-mfMSR1; dissociative half-life; NB = no binding observed

Row | Molecule | t½ [min]
13 | B1 | 154
14 | B2 | 128
15 | B3 | 262
16 | B4 | 181

Same assay, conditions: 37° C.; analyte HMM-mfMSR1; * = no dissociation observed, kd manually fixed at 1.00E−05; NB = no binding observed

Row | Molecule | kd
17 | B1 | 1.08e-05 s⁻¹
18 | B2 | 0.000109 s⁻¹
19 | B3 | 1.00E−05* s^−1
20 | B4 | 7.82e-05 s⁻¹

Same assay, conditions: 37° C.; analyte HMM-mfMSR1; antibody-capture format; NB = no binding observed

Row | Molecule | ka [M⁻¹ s⁻¹]
21 | B1 | 2.74e+06
22 | B2 | 587000
23 | B3 | 2.76e+06
24 | B4 | 712000

Same assay, conditions: 37° C.; analyte HMM-mfMSR1; calculated from kinetic rates; NB = no binding observed

Row | Molecule | Kd [nM]
25 | B1 | 0.00395
26 | B2 | 0.186
27 | B3 | 0.00362
28 | B4 | 0.11

Same assay, conditions: 37° C.; analyte HMM-mfMSR1; dissociative half-life; NB = no binding observed

Row | Molecule | t½ [min]
29 | B1 | 1069
30 | B2 | 106
31 | B3 | 1155
32 | B4 | 148

Molecular target: T1, His9-hMSR1 (human MSR1 extracellular domain)
Assay: as above
Conditions: 25° C.; analyte His9-hMSR1; * = no dissociation observed, kd manually fixed at 1.00E−05; NB = no binding observed
Experimental: as §1, §2

Row | Molecule | kd
33 | B1 | 4.89e-05 s⁻¹
34 | B2 | 5.88e-05 s⁻¹
35 | B3 | 1.44e-05 s⁻¹
36 | B4 | 1.00E−05* s^−1

Same assay, conditions: 25° C.; analyte His9-hMSR1; antibody-capture format; NB = no binding observed

Row | Molecule | ka [M⁻¹ s⁻¹]
37 | B1 | 1.23e+06
38 | B2 | 399000
39 | B3 | 1.2e+06
40 | B4 | 477000

Same assay, conditions: 25° C.; analyte His9-hMSR1; calculated from kinetic rates; NB = no binding observed

Row | Molecule | Kd [nM]
41 | B1 | 0.0397
42 | B2 | 0.147
43 | B3 | 0.012
44 | B4 | 0.021

Same assay, conditions: 25° C.; analyte His9-hMSR1; dissociative half-life; NB = no binding observed

Row | Molecule | t½ [min]
45 | B1 | 236
46 | B2 | 196
47 | B3 | 800
48 | B4 | 1155

Same assay, conditions: 37° C.; analyte His9-hMSR1; * = no dissociation observed, kd manually fixed at 1.00E−05; NB = no binding observed

Row | Molecule | kd [s⁻¹]
49 | B1 | 1.23e-05
50 | B2 | 0.000115
51 | B3 | 1.85e-05
52 | B4 | 9.09e-05

Same assay, conditions: 37° C.; analyte His9-hMSR1; antibody-capture format; NB = no binding observed

Row | Molecule | ka [M⁻¹ s⁻¹]
53 | B1 | 2.67e+06
54 | B2 | 534000
55 | B3 | 2.56e+06
56 | B4 | 702000

Same assay, conditions: 37° C.; analyte His9-hMSR1; calculated from kinetic rates; NB = no binding observed

Row | Molecule | Kd [nM]
57 | B1 | 0.0046
58 | B2 | 0.215
59 | B3 | 0.00724
60 | B4 | 0.13

Same assay, conditions: 37° C.; analyte His9-hMSR1; dissociative half-life; NB = no binding observed

Row | Molecule | t½ [min]
61 | B1 | 941
62 | B2 | 101
63 | B3 | 624
64 | B4 | 127

Molecular target: T2, MSR1-mediated Dil-AcLDL uptake in HEK293.Myc.hMSR1 cells
Assay: Ligand uptake assay, Dil-AcLDL
Format: cell-based
Conditions: 10 μg/mL Dil-AcLDL, read-out: Dil-Acetylated LDL IC50
Experimental: A bioassay was generated to assess the ability of the exemplary anti-MSR1 antibodies to regulate the uptake of certain MSR1 ligands.
Generation of MSR1-expressing cell lines for assay. […] The resulting cell line, referred to here as “HEK293.Myc.hMSR1”, was selected and maintained in DMEM containing 10% FIBS, NEAA, penicillin/streptomycin, L-glutamine, and 100 μg/mL hygromycin.
Ligand uptake assay. […] After 30 minutes, either oxidized or acetylated low-density lipoprotein (LDL) labeled with 1,1′dioctadecyl-3,3,3′,3′-tetramethylindocarbocyanine perchlorate (referred to as “Dil-OxLDL” or “Dil-AcLDL,” respectively) was added to the cells at a constant concentration of 10 μg/mL. […] Results were analyzed using nonlinear regression (4-parameter logistics) with the Prism 7 program to obtain EC50 and IC50 values. The percentage of inhibition was calculated with the Relative Fluorescent Unit (RFU) values by using the following equation: […]
In the equation, “RFUBaseline” is the fluorescence value from the cells treated with 10 μg/mL ligand without antibodies, “RFUInhibition” is the minimum fluorescence value with for a particular antibody with 10 μg/mL ligand, and “RFUBackground” is the fluorescence value from cells without any ligand or antibodies.

Row | Molecule | IC50 [nM]
65 | B1 | 2.4
66 | B3 | 2.1
67 | B4 | 3.5

Same assay, conditions: maximum inhibition, 10 μg/mL Dil-AcLDL

Row | Molecule | Dil-Acetylated LDL % Inhibition [%]
68 | B1 | 65
69 | B2 | 62
70 | B3 | 65
71 | B4 | 63
